As a reminder, the Kd is the concentration at which binding is half-saturated.

Test [1] addresses FITC labeled phosphorylated MST1 T367 peptide (human). The experiment in a line: fluorescence polarisation; 20 nM FITC-labelled peptide, MOB protein titrated (12 points, triplicate); 25 mM HEPES pH 7.5, 150 mM NaCl, 2 mM DTT, 1 mg/ml BSA; one site-specific binding fit.
Test [2] addresses FITC labeled phosphorylated MST1 T353 peptide (human). The test is described as above.

B1: MOB1A wild-type (natural protein)
chain: SFLFSSRSSKTFKPKKNIPEGSHQYELLKHAEATLGSGNLRQAVMLPEGEDLNEWIAVNTVDFFNQINMLYGTITEFCTEASCPVMSAGPRYEYHWADGTNIKKPIKCSAPKYIDYLMTWVQDQLDDETLFPSKIGVPFPKNFMSVAKTILKRLFRVYAHIYHQHFDSVMQLQEEAHLNTSFKHFIFFVQEFNLIDRRELAPLQELIEKLGSKDR
In the case of B1, the Kd stood at 680 nM in test [1] and 280 nM in test [2].

B2: MOB4 (tags cleaved) (natural protein)
chain: VMAEGTAVLRRNRPGTKAQDFYNWPDESFDEMDSTLAVQQYIQQNIRADCSNIDKILEPPEGQDEGVWKYEHLRQFCLELNGLAVKLQSECHPDTCTQMTATEQWIFLCAAHKTPKECPAIDYTRHTLDGAACLLNSNKYFPSRVSIKESSVAKLGSVCRRIYRIFSHAYFHHRQIFDEYENETFLCHRFTKFVMKYNLMSKDNLIVPILEEEVQNSVSGESEA
For B2, the Kd in test [1] was determined as 12200 nM.

The record behind these values is paper PMC5461540, “MOB1 Mediated Phospho-recognition in the Core Mammalian Hippo Pathway” (Molecular & Cellular Proteomics : MCP, 2017).
